Test results published in article PMC4008586 (PLoS ONE, 2014).
Changes are numbered by the printed parent chain. One block for each binder: values may come before it.

Molecular target: Bim-BH3 peptide
Assay: SPR; Biacore assay; who was immobilised and the conditions are not stated
Settings: both partners purified

Kd: ~60 pM
B1: hMcl-1(171–327), wild type (domain or fragment, human, UniProt Q07820 171-327, looked up)
chain: EDELYRQSLEIISRYLREQATGAKDTKPMGRSGATSRKALETLRRVGDGVQRNHETAFQGMLRKLDIKNEDDVKSLSRVMIHVFSDGVTNWGRIVTLISFGAFVAKHLKTINQESCIEPLAESITDVLVRTKRDWLVKQRGWDGFVEFFHVEDLEGG
notes: also called myeloid cell leukemia-1

Kd: ~60 pM
B2: hMcl-1(171–327) Cys 286 → Ser (domain or fragment, human, UniProt Q07820 171-327, looked up)
chain: B1 chain with C116S
notes: seven nonnative residues LHHHHHH at the C-terminus; The NMR samples were uniformly 13C,15N-labeled (or U-15N, 5% 13C); also called mutant; mutant Cys 286 → Ser
